Molecular target: I-A^q molecule of MHC (mouse (DBA/1))
Assay: cell-based or functional assay

B1: CII 245-270 (peptide)
peptide: PTGPLGPKGQTGZLGIAGFKGZQGPK
B1 gave an IL-2 U/ml, T-cell hybridoma 2qCII92.33, molar ratio 0:1 (no competitor; baseline in the row of CII 245-270 [s260, 261, 263]) of 160 U/ml, an IL-2 U/ml, T-cell hybridoma 2qCII92.33, molar ratio 0:1 (no competitor; baseline in the row of CII 245-270 [s266, 267, 269]) of 160 U/ml and an IL-2 U/ml, T-cell hybridoma qCII85.33, molar ratio 0:1 (no competitor; baseline in the row of CII 245-270 [s260, 261, 263]) of 640 U/ml. It also gave an IL-2 U/ml, T-cell hybridoma qCII85.33, molar ratio 0:1 (no competitor; baseline in the row of CII 245-270 [s266, 267, 269]) of 640 U/ml, an IL-2 U/ml, T-cell hybridoma qCII98.10, molar ratio 0:1 (no competitor; baseline in the row of CII 245-270 [s260, 261, 263]) of 160 U/ml and an IL-2 U/ml, T-cell hybridoma qCII98.10, molar ratio 0:1 (no competitor; baseline in the row of CII 245-270 [s266, 267, 269]) of 160 U/ml.

Reference: patent publication US6423315
